Test [1] has as its system Cry j I reactive T cells. The test can be described thus: T cell proliferation assay, Cry j I primed T cell lines (Example 6). It is filed as cell-based, human. As for the experimental part:
Viable cells were purified by LSM centrifugation and cultured in complete medium supplemented with 5 units recombinant human IL-2/ml and 5 units recombinant human IL-4/ml for up to three weeks until the cells no longer responded to lymphokines and were considered “rested”. The ability of the T cells to proliferate to selected peptides, recombinant Cry j I (rCry j I), purified native Cry j I, or recombinant Amb aI.1 (rAmb aI.1) or a positive control, phyto-hemaglutinin (PHA) was then assessed. For assay, 2×10^4 rested cells were restimulated in the presence of 2×10^4 autologous Epstein-Barr virus (EBV)-transformed B cells (prepared as described below) (gamma-irradiated with 25,000 RADS) with 2-50 μg/ml of selected peptides, Cry j I, purified native Cry j I or rAmb a I.1 or PHA, in a volume of 200 μl complete medium in duplicate or triplicate wells in 96-well round bottom plates for 2-4 days. […] Each well then received 1 μCi tritiated thymidine for 16-20 hours. The counts incorporated were collected onto glass fiber filter mats and processed for liquid scintillation counting. […] The titrations were used to optimize the dose of peptides in T cell assays. The maximum response in a titration of each peptide is expressed as the stimulation index (S.I.). The S.I. is the counts per minute (CPM) incorporated by cells in response to peptide, divided by the CPM incorporated by cells in medium only.
The above procedure was followed with a number of other patients. […] The bars represent the positivity index. Above each bar is the percent of positive responses with an S.I. of at least two to the peptide or protein in the group of patients tested. In parenthesis above each bar are the mean stimulation indices for each peptide or protein for the group of patients tested.
Autologous EBV-transformed cell lines were y-irradiated with 25,000 Rad and used as antigen presenting cells in secondary proliferation assays and secondary bulk stimulations. These EBV-transformed cell lines were made by incubating 5×10^6 PBL with 1 ml of B-59/8 Marmoset cell line (ATCC CRL1612, American Type Culture Collection, Rockville, Md.) conditioned medium in the presence of 1 μg/ml phorbol 12-myristate 13-acetate (PMA) at 37° C. for 60 minutes in 12×75 mm polypropylene round-bottom Falcon snap cap tubes (Becton Dickinson Labware, Lincoln Park, N.J.). These cells were then diluted to 1.25×10^6 cells/ml in RPMI-1640 as described above except supplemented with 10% heat-inactivated fetal bovine serum and cultured in 200 μl aliquots in flat bottom culture plates until visible colonies were detected. They were then transferred to larger wells until the cell lines were established.

Test [2] concerns allergic patient IgE. The test can be described thus: Direct ELISA, IgE binding to rCry j I and Cry j I peptides (Example 8). Details: species or system human. Particulars: PHP (15 patients), FIG. 15. The protocol: The recombinant Cry j I protein (rCry j I), expressed in bacteria and then purified (as described in Example 5), has been examined for IgE reactivity. The first method applied to this examination was direct ELISA where wells were coated with the recombinant Cry j I and IgE binding was assayed on individual patients. FIG. 9 is the graphic representation of this direct ELISA.
To analyze IgE reactivity to selected Cry j I peptides a direct ELISA format was used. ELSIA wells were coated with 25 peptides derived from Cry j I and assayed for IgE binding. FIG. 15a and 15b are graphs of these binding results using PHP (15 patients) as the cedar pollen allergic IgE source. This pool of plasma was formulated for enrichment of IgE that could bind to denatured SPE (as determined by direct ELISA) and therefore increase the chance of reactivity toward the peptides.
(In general: In an ELISA, binding on a coated surface is turned into a signal by an enzyme label.)

Test [3] relates to Cry j allergic patient plasma IgE. Briefly: Cry j I peptide screen, direct ELISA for IgE binding (Example 12). As to conditions: plasma pools PHP-A and PHP-D, FIGS. 22 and 23. Details: species or system human. From the text: To analyze IgE reactivity to the selected peptides discussed in example 11 and shown in FIG. 20, a direct ELISA format was used. ELISA wells were coated with the selected peptides derived from Cry j I and then assayed for IgE binding. FIGS. 22 and 23 are graphs of these binding results using two different pools of Cry j allergic patient plasma. Patient plasma pool A (denoted PHP-A) (FIG. 22) was formulated by mixing equal volumes of plasma from 22 patients that were all shown to be positive for direct IgE binding to native purified Cry j I by ELISA. The second pool (PHP-D) (FIG. 23) was formulated by the combination of equal plasma volumes from 8 patients that had IgE binding by direct ELISA to both native and denatured purified Cry j I. This pool was generated to increase the chance of detecting reactivity towards peptides. […] There was no detectable IgE binding reactivity to any of the peptides at any of the plasma concentrations used. To control for the presence of peptide coating the wells, mouse polyclonal antisera was generated to the peptides. […] The results of these assays are shown in FIG. 24, and indicate that peptides were coating the wells.

Test [4] concerns allergic patient IgE. The test can be described thus: Allergic sera titration of purified subfractions of Cry j I (FIG. 3). Format: binding, human. As to conditions: pool of fifteen allergic patient plasma. From the text: In summary, three Cry j I isoforms of different molecular weight were purified from pollen extract. The molecular weights estimated by SDS-PAGE ranged from 40-35 kD under both reducing and non-reducing conditions. The isoelectric point of these isoforms is approximately 9.5-8.6, with an average pI of 9.0. The N-terminal 20 amino acid sequence was the same in these 3 bands and was identical to previously published Cry j I sequence (Taniai et al, supra). The 3 isoforms are all recognized by monoclonal antibody CBF2 as shown in the allergic sera titration of different purified subfractions of Cry j I using a pool of fifteen allergic patient plasma. […] The difference in molecular weight and isoelectric point in these isoforms might in part be due to post-translational modification, e.g. glycosylation, phosphorylation or lipid content. The possibility that these different isoforms might be due to protease degradation cannot be ruled out at present even though it is unlikely due to the fact that four different protease inhibitors were used during extraction and purification. The other possibility could be due to polymorphism in the gene or alternate splicing in the mRNA though only one major form of Cry j I protein has been detected in cDNA cloning studies (see Example 4).

B1: purified native Cry j I: major allergen of Japanese cedar pollen, biochemically purified in the native form (protein)
chain: DNPIDSCWRGDSNWAQNRMKLADCAVGFGSSTMGGKGGDLYTVTNSDDDPVNPAPGTLRYGATRDRPLWIIFSGNMNIKLKMPMYIAGYKTFDGRGAQVYIGNGGPCVFIKRVSNVIIHGLYLYGCSTSVLGNVLINESFGVEPVHPQDGDALTLRTATNIWIDHNSFSNSSDGLVDVTLTSTGVTISNNLFFNHHKVMLLGHDDAYSDDKSMKVTVAFNQFGPNCGQRMPRARYGLVHVANNNYDPWTIYAIGGSSNPTILSEGNSFTAPNESYKKQVTIRIGCKTSSSCSNWVWQSTQDVFYNGAYFVSSGKYEGGNIYTKKEAFNVENGNATPQLTKNAGVLTCSLSKRC
As for B1, in test [1] (panel of twenty-five patients, FIG. 14), the “T cell line response” value was “All twenty-five T cell lines responded”. The “T cell proliferative response” value in test [1] (patient #999, FIG. 12) was “responds well”. The “IgE binding, direct ELISA” value in test [2] is recorded as “only specific IgE detected”; in test [3] it was “direct binding”. Besides, in test [4], the “IgE binding of purified isoforms” value was “bind allergic patient IgE”.

For the origin of these results see US8540999B2, “Allergenic proteins and peptides from Japanese cedar pollen” (Merck Patent GmbH, priority 1991, dated 2013).
